One series addresses mPOLγA A449T;mPOLγB (Mus musculus;Mus musculus, UniProt P54099;Q9QZM2 26-1218;17-459, A450T|). Description: EMSA.
Another series has as its target T1, mPOLγA A449T (Mus musculus, UniProt P54099 26-1218, A450T).
T1 sequence: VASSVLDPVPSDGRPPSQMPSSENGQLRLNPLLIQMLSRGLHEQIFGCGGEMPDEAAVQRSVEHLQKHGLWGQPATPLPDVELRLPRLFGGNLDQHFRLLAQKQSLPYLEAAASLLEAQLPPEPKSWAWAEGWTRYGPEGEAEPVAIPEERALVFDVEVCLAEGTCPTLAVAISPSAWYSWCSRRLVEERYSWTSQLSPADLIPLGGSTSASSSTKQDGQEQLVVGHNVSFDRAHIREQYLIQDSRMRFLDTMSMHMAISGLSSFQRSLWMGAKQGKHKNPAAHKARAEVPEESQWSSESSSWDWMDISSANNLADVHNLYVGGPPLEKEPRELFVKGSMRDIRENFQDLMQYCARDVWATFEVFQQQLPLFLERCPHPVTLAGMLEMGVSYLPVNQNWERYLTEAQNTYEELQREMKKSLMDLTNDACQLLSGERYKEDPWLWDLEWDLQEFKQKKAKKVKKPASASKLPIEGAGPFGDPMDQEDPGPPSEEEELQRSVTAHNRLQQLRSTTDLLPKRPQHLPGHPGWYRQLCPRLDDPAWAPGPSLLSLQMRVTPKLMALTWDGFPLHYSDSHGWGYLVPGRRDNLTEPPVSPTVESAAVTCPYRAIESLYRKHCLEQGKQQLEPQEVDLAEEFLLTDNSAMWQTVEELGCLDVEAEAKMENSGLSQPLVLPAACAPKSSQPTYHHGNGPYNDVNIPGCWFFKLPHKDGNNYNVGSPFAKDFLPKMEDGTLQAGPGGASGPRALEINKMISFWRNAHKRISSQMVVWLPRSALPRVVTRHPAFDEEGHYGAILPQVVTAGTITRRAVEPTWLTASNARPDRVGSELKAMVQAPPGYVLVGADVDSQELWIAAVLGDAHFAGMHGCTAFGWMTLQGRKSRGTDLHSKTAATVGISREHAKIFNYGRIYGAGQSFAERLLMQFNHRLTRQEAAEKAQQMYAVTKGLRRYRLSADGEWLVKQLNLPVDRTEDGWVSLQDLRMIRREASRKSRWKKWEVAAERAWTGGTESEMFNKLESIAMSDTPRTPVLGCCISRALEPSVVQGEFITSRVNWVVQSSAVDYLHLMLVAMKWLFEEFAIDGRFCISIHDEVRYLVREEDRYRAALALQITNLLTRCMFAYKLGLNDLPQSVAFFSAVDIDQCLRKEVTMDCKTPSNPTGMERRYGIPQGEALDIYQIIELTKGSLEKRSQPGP
As to the kind of experiment: EMSA. In general terms: A gel shift assay detects complexes by their altered migration in electrophoresis.

Experimental findings from PMC8136776 are described below.

mPOLγA A449T;mPOLγB, sequence (Q9QZM2 17-459, stated change not applied, one chain of several): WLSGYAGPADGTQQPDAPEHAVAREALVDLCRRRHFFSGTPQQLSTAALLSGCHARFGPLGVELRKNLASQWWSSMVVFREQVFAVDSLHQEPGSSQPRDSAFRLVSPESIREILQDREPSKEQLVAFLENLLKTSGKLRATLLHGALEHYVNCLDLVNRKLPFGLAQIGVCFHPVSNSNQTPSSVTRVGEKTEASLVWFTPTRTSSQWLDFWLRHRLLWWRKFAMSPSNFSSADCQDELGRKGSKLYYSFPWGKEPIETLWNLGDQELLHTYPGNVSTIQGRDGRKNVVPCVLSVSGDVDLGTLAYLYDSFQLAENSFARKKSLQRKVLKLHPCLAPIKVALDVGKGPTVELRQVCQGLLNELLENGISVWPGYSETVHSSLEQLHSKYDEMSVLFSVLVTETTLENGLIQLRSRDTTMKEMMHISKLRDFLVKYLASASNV

B1: 36/21-nt primer-template (mixed)
DNA 1: TTTTTTTTTTATCCGGGCTCCTCTAGACTCGACCGC
DNA 2: GCGGTCGAGTCTAGAGGAGCC
As to B1, the binding signal was 1.75 fold lower binding than WT holoenzyme with mPOLγA A449T;mPOLγB and ~3.4 fold lower binding than WT in the series with mPOLγA A449T.
